Laboratory results reported in US20240368283A1.

What was measured:
[1] = biological target: cyPD1 (cynomolgus monkey); assay: biosensor kinetics (BLI type); antibody captured on anti-human Fc biosensor, PD-1 in solution
[2] = biological target: huPD1 (human) (UniProt Q15116); assay: as above
Chain of huPD1 (human) (Q15116 25-170 limits assumed): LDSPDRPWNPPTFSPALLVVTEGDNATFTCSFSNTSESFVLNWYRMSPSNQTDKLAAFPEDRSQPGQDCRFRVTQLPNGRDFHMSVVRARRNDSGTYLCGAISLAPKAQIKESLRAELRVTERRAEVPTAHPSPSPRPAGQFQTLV

| Binder | Kd [1] | koff [1] | kon [1] | Kd [2] | koff [2] | kon [2] |
| --- | --- | --- | --- | --- | --- | --- |
| TA275 (antibody, V domains shown, Fc SEQ 587, CL SEQ 416) VH: QVTLKESGPGILQPSQTLSLTCSFSGFSLSTFGMGVGWIRQPSGKGLEWLAHIWWDDDKYYNPALKSRLTISKDTSKNQVFLKIANVDTADTATYYCARIPTRYWYFDVWGTGTTVTVSS VL: QAVVTQESALTTSPGETVTLTCRSSTGAVTTSNYANWVQEKPDHLFTGLIGGTNNRAPGVPARFSGSLIGDKAALTITGAQTEDEAIYFCALWYSTHYVFGGGTKVTVL | 987 nM | 0.2 s⁻¹ | 200000 M⁻¹ s⁻¹ | 600 nM | 0.2 s⁻¹ | 330000 M⁻¹ s⁻¹ |
| TA289 (antibody, V domains shown, Fc SEQ 587, CL SEQ 416) VH: QVTLKESGPGILQPSQTLSLTCSFSGFSLSTFGMGVGWIRQPSGKGLEWLAHIWWDDDKYYNPALKSRLTISKDTSKNQVFLKIANVDTADTATYYCARIRGTWWYFDVWGTGTTVTVSS VL: QAVVTQESALTTSPGETVTLTCRSSTGAVTTSNYANWVQEKPDHLFTGLIGGTNNRAPGVPARFSGSLIGDKAALTITGAQTEDEAIYFCALWYSNQFIFGSGTKVTVL | 1390 nM | 2.1 s⁻¹ | 1.6e+06 M⁻¹ s⁻¹ | 484 nM | 1.6 s⁻¹ | 3.4e+06 M⁻¹ s⁻¹ |
| TA101 (antibody, V domains shown, Fc SEQ 587, CL SEQ 416) VH: DVQLVESGGGVARPGEFLRLSCAASGFTFRDYDMGWVRQAPGEGLEWVSSISVSGTTYYADSVKGRFTISRDNSENTLYLQMNSLTAEDTAVYYCGREDTLFHYWGLGTLVTVSS VL: QSVLTQPPSASGTPGQRVTISCSGSTSNIGTRYVYWYQQLPGTAPKLLIYKNLQRPSGVPDRFSGSKSGTSASLAISGLQSEDEADYYCAAWDERLNGWVFGGGTKLTVL | 62.2 nM | 0.0076 s⁻¹ | 120000 M⁻¹ s⁻¹ | 32.9 nM | 0.022 s⁻¹ | 680000 M⁻¹ s⁻¹ |
| TA102 (antibody, V domains shown, Fc SEQ 587, CL SEQ 416) VH: DVQLVESGGGVVRPGESLRLSCAASGFTFRNYDMTWVRQAPGEGLEWVATISGTDDTTYYADSVKGRATISRDNSNNTLYLRLFSLRAEDTAIYYCAREASNSFIDYWGLGTLVTVSS VL: QSVLTQPPSASGTPGQRVTISCSGSSSNIGRRYVYWYQQLPGTAPKLLIYRNFERPSGVPDRFSGSKSGTSASLAISGLQSEDEADYYCASWDESLNGWVFGGGTKLTVL | 7.2 nM | 0.01 s⁻¹ | 1.4e+06 M⁻¹ s⁻¹ | 24.8 nM | 0.014 s⁻¹ | 540000 M⁻¹ s⁻¹ |
| TA104 (antibody, V domains shown, Fc SEQ 587, CL SEQ 416) VH: DVQLVESGGGVARPGESLRLSCAASGFTFRDYDMGWVRQAPGEGLEWVSSISVSGTTYYADSVKGRFTISRDNSENTLYLQMNSLTAEDTAVYYCGREDTLFHYWGLGTLVTVSS VL: QSVLTQPPSASGTPGQRVTISCSGSTSNIGTRYVYWYQQLPGTAPKLLIYKNLQRPSGVPDRFSGSKSGTSASLAISGLQSEDEADYYCAAWDERLNGWVFGGGTKLTVL | 56.8 nM | 0.009 s⁻¹ | 160000 M⁻¹ s⁻¹ | 33.1 nM | 0.024 s⁻¹ |  |
| TA132 (antibody, V domains shown, Fc SEQ 587, CL SEQ 416) VH: EVQLLESGGAFVQPGGSLRLSCAASGFTFSDYYMSWVRQAPGKGLEWVSVISNSGGSTYYTDSVKGRFTISRDNSKNTLYLQINSLRAEDTAVYYCTKDIGMTYFDYWGQGTLVTVSS VL: QSVLTQPPSASGAPGQRVTISCSGSYSNIGNSYVSWYQQLPGTAPKLLIYLNSQRPSGVPDRFSGSKSGTSASLAISGLQSEDEADYYCAAWDDLNVWVFGGGTKLTVL | 92 nM | 0.0137 s⁻¹ | 149000 M⁻¹ s⁻¹ | 5.72 nM | 0.000647 s⁻¹ | 113000 M⁻¹ s⁻¹ |
